Target: the molecule itself
Experiment: AUC; sedimentation velocity, 35,000 rpm, 15°C; 2.7 µM enolase (subunits) in TME buffer (50 mM Tris/HCl, 1 mM Mg(OAc)2, 0.1 mM EDTA, pH 7.4) without NaClO4; c(s) analysis (SEDFIT), mass also from DLS radius and DCDT+; octamer

B1: wild type octameric enolase from S. pyogenes (enzyme, UniProt P69949 1-435, looked up)
chain: MSIITDVYAREVLDSRGNPTLEVEVYTESGAFGRGMVPSGASTGEHEAVELRDGDKSRYLGLGTQKAVDNVNNIIAEAIIGYDVRDQQAIDRAMIALDGTPNKGKLGANAILGVSIAVARAAADYLEVPLYTYLGGFNTKVLPTPMMNIINGGSHSDAPIAFQEFMIMPVGAPTFKEGLRWGAEVFHALKKILKERGLVTAVGDEGGFAPKFEGTEDGVETILKAIEAAGYEAGENGIMIGFDCASSEFYDKERKVYDYTKFEGEGAAVRTSAEQVDYLEELVNKYPIITIEDGMDENDWDGWKVLTERLGKRVQLVGDDFFVTNTEYLARGIKENAANSILIKVNQIGTLTETFEAIEMAKEAGYTAVVSHRSGETEDSTIADIAVATNAGQIKTGSLSRTDRIAKYNQLLRIEDQLGEVAQYKGIKSFYNLKK
notes: enolase (EC 4.2.1.11) of Streptococcus pyogenes; no removal of the His tag is described; also called wild type enolase; wild type enzyme; source: E. coli BL21(DE3), pET-14b, purified (Ni-NTA, dialysis, (NH4)2SO4 precipitation)
stoichiometry N: 8
